In publication PMC12809078 (2025) one finds Kd data, which are given here for one molecule.

The assay deals with CtBP2_(31-364)-StrepI (human, UniProt P56545 31-364). Nature of the assay: ITC. A general note: ITC needs no label: the signal is the heat of the interaction.

As a reminder, the Kd is a measure of binding affinity in units of concentration. A lower Kd goes with a tighter complex. The molecule NKEGDTAWDLTPE [G9a peptide encompassing residues 881 to 893] registered a Kd of 7.2 µM. This counts as single-digit micromolar.
